Test results: the DeepSol protein solubility set

Assay: soluble on expression in E. coli; label from the status in PepcDB or PDB records

Soluble on expression in E. coli, not soluble:
MIEGHGDDSYKYRHPIRSNFSSNVYNKVNLDGLRAHLCGRISAISAYPEPEPYTLEARLADRHALPAASVCVTNGATEAIYLIAQTFRGTNTAILMPTFSEYADACRMHGHKVTSLYTLDAVPEDVRMVWLCNPNNPTGEVRDKKYLTELIAKHPRVCFVIDQSYEYFTLKELFTAQEAAGFPNVILLHSMTKRYAIPGLRLGYVTAHPGLIGRLRTNRMPWSVNQLAIEAGLYLLSEGIPAGLSMKDYLAECARLKSSLEAIGGLEVWPTDTHFMLVCLRFGKAAALKEYLAREEGILIRDASNFEGLDERFFRIATQTPEENDELVGAIAKWMAE
MRKPKITVIGGGTGIPVILNSLRHEEVDITAIVTVADDGGSSGAIRHVMQLTPPGDLRNVLVAMSDMPKFYERIFQYRFNAEDGALAGHPLGNLIIAGISEMQGSTYNAMQILSKFFHTTGKIYPSSEKALTLHAVFQDGQEVVGESQIAKHKGMIDHVYVANSYDDAKPTASRKVVDAIMESDMIVLGPGSLFTSILPNLVIDEIGKALCETEAEVAYVCNIMTQYGETEHFTDADHVRVLNRHLGQNFIDTVLVNVEKVPQDYMNSNQFDEYLIQVEHDFAGLQEQVPRVVSSNFLCLENGGAFHNGKSVVDELMNLIKVKELLEHHHHHH
MGSDKIHHHHHHMPANPLPDDDLADSDTDDTGSGEHGEGGEKVRSGIQSIEVGFRLLEVLTSEPRAMMLRDLAQRAGMSPAKAHRYLVSFSRLGVVSQDPVSGRYELGGFALQMGLARLARVDGVKLARIALTELRDRVDQTVGIAVWGNQGPTIVHWMESSHPAKASLKLGDVMPLLGSATGLLFAAYLPRSKTAAMLERELADTRRSPHHGGPRTLEEVDAVLADVRAHQAARVEGMLLPTIHAFCMPVFDAVGELALAIVALGQEGTFDIAWGGEMDTALRACAQKLSYELGYSPDARDA
MGSDKIHHHHHHMKIGVIQASTRTDLNQLLFEAVKQAAGNQHEIVNFGVFPQETENYSYVEVAIMISLLIETGAIDFMVSGCSSGQGMMMACNSLPGLQAGFIQTPQDAFLFGRINNGNVASLSLGLNFGWAGELNLQYALNELFHGEFGIGYPPEVAERKREEAQLLLTLNDITKKSFLEIIDQLDKALLFKILKRKDLTAYLFDYGSNSLLLERLQFFRN
MSEQIRLENLTIFMQRRAVKHVYLRVHPPDGRVTLVAPTGMRLEVVRAFVTAKLDWIHKQQAKLQAQVREVPRQFIGGESHTVWGRHYVLQVVEKSAGPCVLMDQQTITLQVRPGSDLFKRAAVMHAWHKSLLHAVVPDLIGKWQDRLGVSVSAYFLQQMKTRWGSCNTRRRHIRLNTDLVRKPQDLLEYVVVHELVHLIEPSHNKRFVGLMDQHYPAWREATAELNQIPLSAIRPRGLEHHHHHH
MKKQSCSHTTEDVPFPQANRRKFLQLAALGSSIGLFSVVSGISEARAEKKAGTLLLSCMDYRLMDEIERYMLRRGLYHNYDHIVLAGASLGAVTDKYPAWSRTFWDHLDLAVNLHEIHTVMVMDHRDCGAYKILLGEDYSKDTDRETAEHTIKLTQLKDMINKKYPKIEVETLLMGLNGEVEAIPTAVAKQG
YNSLSFLMRHDMIAGFHWFGPWGRDTFISMPGVLLVSGRYNEARRVLEHYAERIQDGMIPNTQDVEALRFSADTSLWFIYAVQKYLEYAGDDDFARQMLVPIKSIITAYIKGNSMFHLDDDLVTLTGSPLTWMDAMVSGKPVTPRIGKPIEINALWYNALSFYSRTAHDITGEDTEMFSKLARRIKQKFRAKFIKGDAVLDVSDPDDMKFRPNFLIPYFLPYPLLNDRKFVDLAWEKLVTPYGLRTLSPDDPDYVPTYSGPQPERDMAYHNGTVWPWLAGIFITAAVKTGYDKHALLEKFAPLFSMSRIPEIFDGSGTGIPKGCIMQAWSHGEIARAYFEDLRGGRS
MAFIESWAKRTWLVPPQMQLYVDYKIKVTEILTNYTSIEEIHSYSIDESFLDITESLNFFYPDIRNRYEQMNLITLDLQREILDKLGLYVTVGMGDNPLLAKLAMDNYAKHNQNMRALIRYLEHHHHHH
MSLNVSHFFPETFVSLVKDMLTKTDGSTTKAIETLIGGKAEIEVFQQNNIDYDKLSPEEARLFQRDDDILFRTSSLKTGDDYLSYNYVYVKTNLLPPAIKQDLQEERLPIGKIIAELESRREIFSTGDCLGKHFTQLVPVSADRTYAFKKYQIISGRQCMFYVCELFDLEKICKLTAGEGHHHHHH
MFIYCIPLISQSMIPMALDKTINVMKVTGMFAATYFTGDNRTPFFAFIICLKSFKLENMDQPPKNKSNIFPAVEDSLLLEHHHHHH
MMFGRFTQRAQKVLALSQEEAMRLNHSNLGTEHILLGLVREGEGIAAKALYELGISSEKVQQEVEGLIGHGEKAVTTIQYTPRAKKVIELSMDEARKLGHTYVGTEHILLGLIREGEGVAARVLSNLGISLNKARQQVLQLLGGGDATGAGRQTNTQATPTLDSLARDLTVIAREDNLDPVIGRSKEIQRVIEVLSRRTKNNPVLIGEPGVGKTAIAEGLAQQIVRNEVPETLRGKRVMTLDMGTVVAGTKYRGEFEDRLKKVMDEIRQAGNVILFIDELHTLIGAGGAEGAIDASNILKPPLARGELQCIGATTLDEYRKYIEKDAALERRFQPIKVDEPTVEESIQILHGLRDRYEAHHRVAITDEALEAAVRLSDRYISDRFLPDKAIDVIDESGSKVRLKSFTTPKNVKEMENNLSDLKKEKDAAVQGQEFEKAASLRDKEQKLKKSLEETKANWQEKQGLDHSEVTEDIVAEVVASWTGIPVAKLAETETNKLLNMEKLLHERVIGQDAAVKAVSLAVRRARAGLKDPKRPIGSFIFLGPTGVGKTELARALAESMFGDEDSMIRIDMSEYMEKFSTARLVGAPPGYVGYEEGGQLTEKVRQKPYSVVLLDEIEKAHPDVFNMLLQVLDDGRLTDSKGRVVDFRNTVIIMTSNIGAQEMKQDKSMGFNVTDPLKDHKAMEHRVLQDLKQAFRPEFINRIDETIVFHSLQEKELKQIVTLLTAQLTKRLAERDIHVKLTEGAKSKIAKDGYDPEYGARPLKRAIQKEVEDMLSEELLRGNIKVGDYVEIGVKDGKLEVRKKDAPKKKTTSKKVKAK
MRAIYATDLSAASEAAIQNETCLECLGRIGVDTIHLVTVIPSNVHAGMPGMNFSKRREQGLTRYQNVMEDAGFDTETHVVRGTPHRRINGIAEAEKADVTIIGSRGQSPLNNRVIGSTARNLARTTVVPLLVNRIERSTDEPDVLREHLFQRVLYATDFSENATRAFDAFQYLRHATQEATLVHVESPKDATSEADPAEQLASLADTLSQWDIETNVEVRRGDPAEEILDVEAAVTPTTTLVGSRGQSRMRRLLLGSVSEDIIAQATGNVYLVPPPRTA
MGSDKIHHHHHHMEYVIEMNNITKVFPGIVANDDITLQVKQGEIHALLGENGAGKSTLMNVLFGLYQPEQGEIKIKGKPVKITNPNIANDLGIGMVHQHFMLVHNFTVTENIILGNEPKKNGKIAVEEAAKEIKQLSEQYGLAVDPHAKIEDISVGMQQRVEILKTLYRGAEILIFDEPTAVLTPQEIHELIQIMKKLVQEGKSIILITHKLKEIMEVCDRCTIIRKGKGIGTVDVAETDEHKLAELMVGRQVNFKTEKIEAKPMEEVLSIANLIVHDTRKLPAVKGLDLTVRAGEIVGIAGIDGNGQSELIEAITGLRKVESGSIAIKGKEITNWPVRRITEEGIGHIPEDRHKHGLVLDFSVRDNIVLQTYYKNPFSKKGILNFSKITEKAKALIEQFDVRTPSEQTLARALSGGNQQKAIIAREVDRNPDLLIAAQPTRGLDVGAIEFIHKKLIEQRDNGKAVLLLSLELDEILNVSDRVAVIYEGKIVAIVDAKETNEQQLGLLMAGGTGKEKVNTNG

Soluble on expression in E. coli, soluble:
SESPWIAEDTSQIQTKLLEFAKSPEVFDWMVKIRRKIHENPELGYEELETSKLIRSELELIGIKYRYPVAITGVIGYIGTGEPPFVALRADMDALPIQEGVEWEHKSKIAGKMHACGHDGHVTMLLGAAKILHEHRHHLQGTVVLIFQPAEEGLSGAKKMREEGALKNVEAIFGIHLSARIPFGKAASRAGSFLAGAGVFEAVITGKGGHAAIPQHTIDPVVAASSIVLSLQQLVSRETDPLDSKVVTVSKVNGGNAFNVIPDSITIGGTLRAFTGFTQLQQRVKEVITKQAAVHRCNASVNLTPNGREPMPPTVNNKDLYKQFKKVVRDLLGQEAFVEAAPVMGSEDFSYFAETIPGHFSLLGMQDETNGYASSHSPLYRINEDVLPYGAAIHASMAVQYLKEKASKGSVSGFHEEL
MYIGGTGVEGYHHLFKEILDNAVDEALAGYATEILVRLNEDGSLTVEDNGRGIPVDLMPEEGKPAVEVIYTTLHSGGKFEQGAYKVSGGLHGVGASVVNALSEWTVVEVFREGKHHRIAFSRGEVTEPLRVVGEAPRGKTGTRVTFKPDPEIFGNLRFDPSKIRARLREVAYLVAGLKLVFQDRQHGKEEVFLDKGGVASFAKALAEGEDLLYEKPFLIRGTHGEVEVEVGFLHTQGYNAEILTYANMIPTRDGGTHLTAFKSAYSRALNQYAKKAGLNKEKGPQPTGDDLLEGLYAVVSVKLPNPQFEGQTKGKLLNPEAGTAVGQVVYERLLEILEENPRIAKAVYEKALRAAQAREAARKARELVRRQNPLESDELPGKLADCQTENPEEAELFIVEGDSAGGSAKQGRDRRFQAILPLRGKILNVEKAGLSKALKNAEVRAMVSAIGVGIGGDGEAHFDLEGLRYHKIIIMTDADVDGSHIRTLLLTFFYRYMRPLIERGHVYIAQPPLYRLQVGKKVEYLYSDEELQARLKELEGKHYEVQRFKGLGEMNPEQLWETTMNPEKRVLKRVELQDALEASELFEKLMGQEVAPRREFIEEHARYAELDI
MVKKSYVINWARDLANRGVGVNYDGAFGSQCVDLPFWILGKFFGRPISGNAIDLLNSAKAAGYQVIYDAPGVNPRVGDIFVMHSIAYDGKDYGHTGLVIEDSDGHSIKTIEQNVDGNADNLYVGGPARYRTRSFNGIIGWIRPPYENEILENKREETDMRDFFVITNSEYTFAGVHYAKGAVLHVSPTQKRAFWVIADQENFIKQVNKNIEYVEKNASPAFLQRIVEIYQVKFEGKNVH
MTDKNPISEAKRYLDNARTILKEKGNKENRFYRDPKYVKMAGHTAYAGVLLALDACFGDKTKGRKDVGWYKEQLSGMDKTALKNFISAYDLLHVAMSYDGNTDSDIAKLGLTRADEIILWVEQRTVTC
MSEISDAEKVRIASDFIKHAPPGEFNEVFNSVRMLLENDDLLKNKCVNAIAQYNVGQFVPVKLDGVAKQTLITPYNDLGNGRFYDEVSKKSFKYDHVRKEAADLQPHPAESGITEQWRQALQTQLDIYIDDHYAKSGTGVVFARNGVFTICIESHQFQPKNFCNGRWRSEWNVPVGDGKSGSQEMKGKILSQVHYYEDGNVQLFSEKEPVLKVNVSADFDKTAKEIIHAISEEETIYQNAVQENYANMSDTTFKALRRQLPVTRAKMDWNKAQTYRIGQEMK
GPLGSMPGPAAGSRARVYAEVNSLRSREYWDYEAHVPSWGNQDDYQLVRKLGRGKYSEVFEAINITNNERVVVKILKPVKKKKIKREVKILENLRGGTNIIKLIDTVKDPVSKTPALVFEYINNTDFKQLYQILTDFDIRFYMYELLKALDYCHSKGIMHRDVKPHNVMIDHQQKKLRLIDWGLAEFYHPAQEYNVRVASRYFKGPELLVDYQMYDYSLDMWSLGCMLASMIFRREPFFHGQDNYDQLVRIAKVLGTEELYGYLKKYHIDLDPHFNDILGQHSRKRWENFIHSENRHLVSPEALDLLDKLLRYDHQQRLTAKEAMEHPYFYPVVKEQSQ
